Here are results for two molecules from patent publication US20090068174A1, “THERAPEUTIC ALKALINE PROTEASE COMPOSITIONS AND USE IN FACILITATING THE TRANSPORT OF AGENTS ACROSS THE GASTROINTESTINAL MUCOSAL LINING” (Kansas University Medical Center Research Institute, Inc., priority 2007, published 2009).

A short description of series [1]: Hydrolysis of D-val-leu-lys-pNA (kinetic absorbance assay). The class given is biochemical. The note with it: 20 mM Tris-HCl buffer, pH 7, absorbance at 405 nm. Here is the method:
Specific activity of the purified enzymes was determined by measuring hydrolysis of protamine sulfate and D-val-leu-lys-pNA. For the former, enzyme-substrate mixtures were prepared in 20 mM Tris-HCl, pH 7 or 8, and incubated for 30 min at 37° C. […] Hydrolysis of D-val-leu-lys-pNA in 20 mM Tris-HCl buffer, pH 7, was determined by measuring absorbance at 405 nm wavelength every 10 sec over 10 min and calculating the change in absorbance (mOD units) per min per μg protein.

The target in another series is T1, human IFN-γ (Homo sapiens, UniProt P01579).
T1 sequence (P01579 24-166): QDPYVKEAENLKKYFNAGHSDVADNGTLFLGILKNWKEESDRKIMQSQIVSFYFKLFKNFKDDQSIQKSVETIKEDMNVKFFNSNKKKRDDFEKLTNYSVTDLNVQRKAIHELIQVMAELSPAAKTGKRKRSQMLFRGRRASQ
The series can be described thus: Human IFN-γ degradation (Western blotting). It counts as biochemical. The settings on record: Western blot, antibody to carboxyl terminus. Here is the method: Effects of the purified A. oryzae proteases on human recombinant IFN-γ: (A) protease powder prepared according to Example 1 (preparation); (B) alkaline protease; (C) deuterolysin; and (D) 26 kDa protease. 50 ng quantities of human IFN-γ were incubated at 37° C. for 18 hours with the indicated quantities of preparation, alkaline protease, 26 kDa protease or deuterolysin. Western blotting was then used to determine substrate specificity. C=control, buffer-treated IFN-γ.
Cleavage was evidenced by the disappearance of the native 17 kDa IFN-γ band, rather than the appearance of distinct cleavage peptides. Because the antibody used in this Western blot was specific for the carboxyl terminus of human IFN-γ, these enzymes attack the cytokine at the C terminus (e.g., there is a loss in reactivity with the anti-cytokine antibody, rather than the appearance of smaller peptide products).
Background: In western blotting, separated proteins are transferred to a membrane and probed.

Series [2] in a line: Biochemical properties of the purified proteases (Table 4): pH optimum, substrate specificity, metal requirements. The settings on record: established by inventors.
The test system of another series is Salmon protamine. The series is described as follows: Hydrolysis of salmon protamine sulfate (ninhydrin assay). It counts as biochemical. The settings on record: 20 mM Tris-HCl, pH 7 or 8, 30 min at 37° C. Here is the method: Specific activity of the purified enzymes was determined by measuring hydrolysis of protamine sulfate and D-val-leu-lys-pNA. For the former, enzyme-substrate mixtures were prepared in 20 mM Tris-HCl, pH 7 or 8, and incubated for 30 min at 37° C. After precipitation with 14% trichloroacetic acid and removal of precipitated protein by centrifugation, the reaction mixtures were diluted in 500 mM sodium citrate buffer, pH 5, combined with 2% ninhydrin and boiled for 30 min. After dilution in 50% isopropanol, absorbance was measured at 570 nm wavelength, and results were referenced to leucine as a standard. Hydrolysis of D-val-leu-lys-pNA in 20 mM Tris-HCl buffer, pH 7, was determined by measuring absorbance at 405 nm wavelength every 10 sec over 10 min and calculating the change in absorbance (mOD units) per min per μg protein.
Protamine sulfate from salmon (Sigma, St. Louis, Mo.): 1% (10 mg/ml) solution in reaction buffer. Fushima et al use 2% and denature the protein by boiling for 30 min in 100 mM phosphate buffer, pH 7.0. […]
Procedure • 1. […] Read Absorbance at 570 nm (purple color) and calculate nanomoles by reference to a standard curve prepared with leucine. […] Activity of enzyme is expressed as nanomoles of leucine equivalents released per milligram of protein (endpoint assay) or nanomoles of leucine equivalents/min/μg protein (kinetic assay). • 10. […]

The target of another series is human TNF-α (Homo sapiens, UniProt P01375). The series is described as follows: Bioactivity of protease-treated human TNF-α in the C2C12 cell assay (nitrite). It counts as cell-based. Details: key to Inactivation of Human TNF-α: +: Indicates that the protease inactivated the cytokine; ^a: Cleavage of the cytokine occurred without inactivation. The note with it: for Effect on bioactivity of human TNF-α: C2C12 cells costimulated with mouse IFN-γ, nitrite. Here is the method: Effects of purified A. oryzae proteases on the bioactivity of human TNF-α (A) protease powder prepared according to Example 1 (preparation); (B) alkaline protease; (C) 26 kDa protease; and (D) deuterolysin. 50 ng quantities of TNF-α were incubated at 37° C. for 24 hours with the indicated quantities (∘=buffer alone; […]=5 ng; ▪=10 ng) of: protease powder prepared according to Example 1 (preparation); alkaline protease; 26 kDa protease; and deuterolysin. The reactions were then stopped by addition of FBS and samples were added to C2C12 cells that had been costimulated with mouse IFN-γ. Twenty-four hours later, nitrite was measured in culture fluids.
Chain of human TNF-α (P01375 77-233 limits assumed): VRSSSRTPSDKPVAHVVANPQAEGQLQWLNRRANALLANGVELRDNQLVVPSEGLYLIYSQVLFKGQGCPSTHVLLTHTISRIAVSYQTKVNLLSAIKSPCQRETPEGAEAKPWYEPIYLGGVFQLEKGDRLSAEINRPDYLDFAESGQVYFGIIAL
Protease-treated human TNF-α was then tested for its bioactivity in the C2C12 cell assay. […] (FIG. 12A-D)
The protease powder prepared according to Example 1 inactivates mouse recombinant TNF-α by limited proteolysis. (FIG. 16 A-B) This property was established by measuring the loss of activity of TNF-α in a bioassay in which the cytokine was used to coactivate mouse myoblast C2C12 cells for the production of NO by transcriptional activation of the inducible NO synthase (iNOS) gene. The assay can be used to measure either TNF-α or IFN-γ activity by adding test samples containing one of the cytokines to cells stimulated with an excess of the other cytokine. Nitrite is a stable endproduct of NO produced by the cells. […] (FIG. 16A-B).

Entries after “also recorded” stand apart in the source; their conditions may differ.

B1: 26 kDa Protease: A. oryzae protease cloned recently by Novozyme, labeled the 26 kDa protease, SEQ ID NO: 3 (protein, listed as Aspergillus oryzae)
chain: HASADAWASSKAISSTSSPSSFKMRFISVSSLLLALAPALNAVPVEVAGSAQGLDVTLSQVGNTRIKAWKNTGSEDVTFVHLNFFKDAAPVQKVSLFRNATEVQFQGIKQRLITEGLSDDALTTLAPGATIEDEFDIASTSDLSEGGTITINSNGLVPITTDNKVTGYIPFTSNELSIDVDAAEAASVTQAVKILERRTKVTSCSGSRLSALQTALRNTVSLARAAATAAQSGSSSRFQEYFKTTSSSTRSTVAARLNAVANEAASTSSGSTTYYCSDVYGYCSSNVLAYTLPSYNIIANCDLYYSYLPALTSTCHAQDQATTTLHEFTHAPGVYSPGTDDLGYGYSAATALSASQALLNADTYALFANAVNLNC
Consider B1, for which the “Specific activity, Val-leu-lys-pNA” value in series [1] was found to be 2.1 mOD/min/μg protein. The “Cleavage of human IFN-γ” value in the series with human IFN-γ is “cleave human IFN-γ”. Also, the Substrate specificity result in series [2] was “protamine”. Also, the “Specific activity, Salmon protamine” value with Salmon protamine is 679 nmoles Leucine/30 min./μg protein. Further, the “Effect on bioactivity of human TNF-α” value with human TNF-α is given as “did not significantly alter the biological activity of the cytokine”.

B2: Alkaline Protease: Aspergillus oryzae alkaline protease (oryzin), SEQ ID NO: 2, purified from the protease powder of Example 1 (protein, listed as Aspergillus oryzae)
chain: MQSIKRTLLLLGAILPAVLGAPVQETRRAAEKLPGKYIVTFKPGIDEAKIQEHTTWATNIHQRSLERRGATGGDLPVGIERNYKINKFAAYAGSFDDATIEEIRKNEDVAYVEEDQIYYLDGLTTQKSAPWGLGSISHKGQQSTDYIYDTSAGEGTYAYVVDSGVNVDHEEFEGRASKAYNAAGGQHVDSIGHGTHVSGTIAGKTYGIAKKASILSVKVFQGESSSTSVILDGFNWAANDIVSKKRTSKAAINMSLGGGYSKAFNDAVENAFEQGVLSVVAAGNENSDAGQTSPASAPDAITVAAIQKSNNRASFSNFGKVVDVFAPGQDILSAWIGSSSATNTISGTSMATPHIVGLSLYLAALENLDGPAAVTKRIKELATKDWKDVKGSPNLLAYNGNA
Consider B2, for which the “Specific activity, Val-leu-lys-pNA” value in series [1] is 116.7 mOD/min/μg protein. Moreover, in the series with human IFN-γ, the “Cleavage of human IFN-γ” value was “did not cleave human IFN-γ”. In series [2], the Substrate specificity result is on record as “Protamine > casein,; also recorded: hemoglobin; val-leu-lys”. In the series with Salmon protamine, the “Specific activity, Salmon protamine” value is recorded as 951 nmoles Leucine/30 min./μg protein. The “Effect on bioactivity of human TNF-α” value with human TNF-α is “selectively inactivated human TNF-α”. Moreover, in the series with human TNF-α (Table 7 summary), the “Inactivation of Human TNF-α” value is recorded as “+”.
